Target: T1, NRF2-His (his-tag mouse NRF2) (mouse, UniProt Q60795 1-597)
T1 sequence (looked up): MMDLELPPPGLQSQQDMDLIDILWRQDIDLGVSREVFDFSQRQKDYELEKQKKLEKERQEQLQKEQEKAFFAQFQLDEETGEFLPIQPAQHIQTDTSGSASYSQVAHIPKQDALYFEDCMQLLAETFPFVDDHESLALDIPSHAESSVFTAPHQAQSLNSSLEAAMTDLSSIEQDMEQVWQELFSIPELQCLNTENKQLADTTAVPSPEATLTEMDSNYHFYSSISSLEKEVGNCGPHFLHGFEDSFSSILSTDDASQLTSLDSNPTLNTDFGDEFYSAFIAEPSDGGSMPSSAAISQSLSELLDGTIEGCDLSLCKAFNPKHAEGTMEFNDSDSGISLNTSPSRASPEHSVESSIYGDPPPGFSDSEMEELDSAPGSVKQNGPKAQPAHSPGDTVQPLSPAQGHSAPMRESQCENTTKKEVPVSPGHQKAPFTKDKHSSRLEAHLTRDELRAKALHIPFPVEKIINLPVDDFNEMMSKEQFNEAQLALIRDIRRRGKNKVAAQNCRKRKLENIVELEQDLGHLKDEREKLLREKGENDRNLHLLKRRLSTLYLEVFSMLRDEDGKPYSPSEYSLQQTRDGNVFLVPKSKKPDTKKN
Test: pull-down

binding result: binds
B1: p53R245W-Flag (natural protein, mouse, UniProt P02340 1-390, looked up)
chain: MTAMEESQSDISLELPLSQETFSGLWKLLPPEDILPSPHCMDDLLLPQDVEEFFEGPSEALRVSGAPAAQDPVTETPGPVAPAPATPWPLSSFVPSQKTYQGNYGFHLGFLQSGTAKSVMCTYSPPLNKLFCQLAKTCPVQLWVSATPPAGSRVRAMAIYKKSQHMTEVVRRCPHHERCSDGDGLAPPQHLIRVEGNLYPEYLEDRQTFRHSVVVPYEPPEAGSEYTTIHYKYMCNSSCMGGMNWRPILTIITLEDSSGNLLGRDSFEVRVCACPGRDRRTEEENFRKKEVLCPELPPGSAKRALPTCTSASPPQKKKPLDGEYFTLKIRGRKRFEMFRELNEALELKDAHATEESGDSRAHSSYLKTKKGQSTSRHKKTMVKKVGPDSD

— article PMC10866549 (Science Advances, 2024)
